Measured values taken from patent US20240391984A1.
Numbering of substitutions follows the chain as printed. In names and notes the source's numbering stands.

B1: pAM114 (wt B3 domain of Protein L) (protein)
chain: PKEEVTIKANLIYADGKTQTAEFKGTFEEATAEAYRYADLLAKENGKYTVDVADKGYTLNIKFAGKEKTPEE
B2: pAM238 (Protein L B3 domain; N10H, N45H, N60Q) (designed binder)
chain: B1 chain with N10H, N45H, N60Q
B3: pAM251 (Protein L B2 domain; N10H, N45H, N60Y) (designed binder)
chain: B1 chain with N10H, T31A, L40A, A42K, E44D, N45H, K47E, N60Y
B4: pAM237 (Protein L B2 domain; N10H, N45H, N60Q) (designed binder)
chain: B1 chain with N10H, T31A, L40A, A42K, E44D, N45H, K47E, N60Q
B5: pAM252 (Protein L B3 domain; N10H, N45H, N60Y) (designed binder)
chain: B1 chain with N10H, N45H, N60Y
B6: pAM247 (Protein L C4 domain; N10H, N45H, N60Q) (designed binder)
chain: PKEEVTIKVHLIFADGKTQTAEFKGTFEEATAEAYRYADLLAKVHGEYTADLEDGGYTIQIKFAGKEQPGENPG
B7: pAM249 (Protein L B1 domain; N10H, N45H, N60Y) (designed binder)
chain: SEEEVTIKAHLIFANGSTQTAEFKGTFEKATSEAYAYADTLKKDHGEYTVDVADKGYTLYIKFAGKEKTPEE
B8: pAM235 (Protein L B1 domain; N10H, N45H, N60Q) (designed binder)
chain: B7 chain with Y60Q
B9: pAM246 (Protein L C3b domain; N10H, N45H, N60Q) (designed binder)
chain: PKEEVTIKVHLIFADGKIQTAEFKGTFEEATAKAYAYADLLAKEHGEYTADLEDGGYTIQIKFAGKETPETPEE
B10: pAM260 (Protein L C3b domain; N10H, N45H, N60Y) (designed binder)
chain: B9 chain with Q60Y
B11: pAM245 (Protein L C3 domain; H, H, Q at positions 10, 45, 60) (designed binder)
chain: B9 chain with D39N, Y57N
B12: pAM259 (Protein L C3 domain; H, H, Y at positions 10, 45, 60) (designed binder)
chain: B9 chain with D39N, Y57N, Q60Y
B13: pAM243 (Protein L C2 domain; H, H, Q at positions 10, 45, 60) (designed binder)
chain: B9 chain with I18T, Y57N
B14: pAM257 (Protein L C2 domain; H, H, Y at positions 10, 45, 60) (designed binder)
chain: B9 chain with I18T, Y57N, Q60Y
B15: pAM241 (Protein L C1 domain; H, H, Q at positions 10, 45, 60) (designed binder)
chain: PEEEVTIKAHLIFADGSTQNAEFKGTFAKAVSDAYAYADALKKDHGEYTVDVADKGLTLQIKFAGKKEKPEE
B16: pAM255 (Protein L C1 domain; H, H, Y at positions 10, 45, 60) (designed binder)
chain: B15 chain with Q60Y
B17: pAM248 (D1 domain; N10H, N45H, N60Q) (designed binder)
chain: PKEEVTIKAHLIFADGKTQTAEFKGTFEEATAEAYRYADLLAKVHGEYTADLEDGGYTIQIKFAGKEQPGEN
B18: pAM253 (Protein L B4 domain; N10H, N45H, N60Y) (designed binder)
chain: PKEEVTIKAHLIYADGKTQTAEFKGTFAEATAEAYRYADLLAKEHGKYTADLEDGGYTIYIRFAGKKVDEKPEE
B19: pAM239 (Protein L B4 domain; N10H, N45H, N60Q) (designed binder)
chain: B18 chain with Y60Q
B20: pAM240 (Protein L B5b domain; H, H, Q at positions 10, 45, 60) (designed binder)
chain: KEQVTIKEHIYFEDGTVQTATFKGTFAEATAEAYRYADLLSKEHGKYTADLEDGGYTIQIRFAGKEEPEE
B21: pAM254 (Protein L B5b domain; H, H, Y at positions 10, 45, 60) (designed binder)
chain: B20 chain with Q59Y

Columns and labels:
[1] = target: polyclonal IgG (Gammanorm, Octapharma, Sweden); test: SPR (Biacore 8K+), variant amine-coupled to CM5, Gammanorm as analyte, 1:1 kinetic fit
[2] = target: polyclonal IgG (Gammanorm, Octapharma, Sweden); test: SPR (Biacore 8K+), variant amine-coupled to CM5, Gammanorm as analyte, steady state fit
[3] = target: polyclonal IgG (Gammanorm, Octapharma, Sweden); test: SPR (Biacore 8K+), variant amine-coupled to CM5, Gammanorm as analyte, 1:1 kinetic fit; remark: listed apart in the source
[4] = target: polyclonal IgG (Gammanorm, Octapharma, Sweden); test: SPR (Biacore 8K+), variant amine-coupled to CM5, Gammanorm as analyte, steady state fit; remark: listed apart in the source
[5] = target: polyclonal IgG (Gammanorm, Octapharma, Sweden); test: SPR (Biacore 8K+), 1:1 kinetic fit; summary table, differs from Table 10
[6] = target: polyclonal IgG (Gammanorm, Octapharma, Sweden); test: SPR (Biacore 8K+), steady state fit; summary table, differs from Table 10

| Binder | Kd [1] [nM] | Kd [2] [nM] | Kd [3] [nM] | Kd [4] [nM] | Kd [5] [nM] | Kd [6] [nM] |
| --- | --- | --- | --- | --- | --- | --- |
| B1 | 12 | 45 | 11 | 46 | – | – |
| B2 | – | – | 25 | 82 | – | – |
| B3 | – | – | 20 | 55 | – | – |
| B4 | – | – | 27 | 72 | – | – |
| B5 | – | – | 16 | 69 | – | – |
| B6 | – | – | 9 | 38 | – | – |
| B7 | – | – | 29 | 79 | – | – |
| B8 | – | – | 42 | 101 | – | – |
| B9 | – | – | 17 | 49 | 15 | 47 |
| B10 | – | – | 18 | 51 | – | – |
| B11 | – | – | 65 | 134 | 54 | 118 |
| B12 | – | – | 55 | 120 | – | – |
| B13 | – | – | 39 | 83 | – | – |
| B14 | – | – | 47 | 98 | – | – |
| B15 | – | – | 87 | 187 | – | – |
| B16 | – | – | 146 | 324 | – | – |
| B17 | – | – | 16 | 56 | – | – |
| B18 | – | – | 14 | 54 | – | – |
| B19 | – | – | 17 | 60 | – | – |
| B20 | – | – | 15 | 79 | – | – |
| B21 | – | – | 7 | 41 | – | – |
